From publication PMC7367873, “Dissecting the sequence determinants for dephosphorylation by the catalytic subunits of phosphatases PP1 and PP2A” (Nature Communications, 2020)

Biological target: T1, PP1c (Homo sapiens, UniProt P62136)
T1 construct: His tag with TEV site (N, cleaved yes); intein (pTXB1) (C, cleaved yes); made in house; host or cells: E. coli BL21Star(DE3)pRARE
Assay: Phosphopeptide library dephosphorylation followed by mass spectrometry (PLDMS), PP1c
Format: biochemical
Settings: all libraries, 25 nM PP1c, 100 µM library, 2 min, 25 °C, pH 7.5; library distribution 60% Ser to 40% Thr
Excerpt: In order to determine phosphatase specificity on the phosphopeptide level, we developed an in vitro phosphopeptide library dephosphorylation followed by mass spectrometry approach (PLDMS, Fig. 1a; see the methods for details). In this approach, phosphopeptide libraries would be treated with PP1, PP2A, or left untreated, purified, and analyzed by LC-MS/MS measurements. In the first step, design, synthesis, and validation of phosphopeptide libraries were required. The phosphopeptide libraries were designed to yield an even distribution of amino acids in the different randomized positions and to give high coupling efficiency during synthesis, thus reducing the number of by-products. […]
The individual libraries were incubated with recombinant PP1c or PP2Ac (Supplementary Fig. 1a) and the reaction was stopped by shifting the pH from 7.5 to 3 when 30–50% of the library was dephosphorylated, depending on phosphatase activity (see the methods for details, Supplementary Fig. 1b). Peptides were then separated from the recombinant protein by size-exclusion chromatography (SEC) (Supplementary Fig. 1c) and analyzed by LC-MS/MS (Fig. 1a). […]
For LC-MS analysis, the treated/ctrl peptide libraries were purified by SEC. […] A 0.1 M ammonium acetate buffer (pH 5) was used throughout the column equilibration and purification and the elution profile was recorded at 280 nm. […]

T1 sequence (P62136 whole entry): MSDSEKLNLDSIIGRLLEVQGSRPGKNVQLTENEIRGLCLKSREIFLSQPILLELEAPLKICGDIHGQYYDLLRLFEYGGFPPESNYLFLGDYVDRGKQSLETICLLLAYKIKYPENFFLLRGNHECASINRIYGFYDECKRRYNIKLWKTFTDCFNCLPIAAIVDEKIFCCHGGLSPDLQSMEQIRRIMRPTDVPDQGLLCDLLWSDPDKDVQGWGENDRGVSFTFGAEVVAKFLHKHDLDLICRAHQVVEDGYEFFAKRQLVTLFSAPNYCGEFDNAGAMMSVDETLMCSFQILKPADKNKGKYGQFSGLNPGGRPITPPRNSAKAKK

PP1c: recombinant catalytic subunit of PP1
pThr share of all sites dephosphorylated by PP1c: 73%
